The text below walks through data of patent US20040087498A1, “Modified factor VII” (Novo Nordisk Health Care AG, priority 1991, published 2004).

Read-outs that look alike come from different tables or passages of the source.

The subject of series [1] is Factor VII-deficient plasma. Briefly: One-stage clotting assay of coagulant activity. It counts as biochemical, human. The procedure:
The ability of the modified Factor VII protein to inhibit clotting was measured in a one-stage clotting assay using wild-type Factor VII as a control. Recombinant proteins were prepared essentially as described above from cells cultured in media containing 5 μg/ml vitamin K. Varying amounts of the modified Factor VII (from clone 544) or recombinant wild-type Factor VII were diluted in 50 mM Tris pH 7.5, 0.1% BSA to 100 μl. The mixtures were incubated with 100 μl of Factor VII-deficient plasma (George King Bio-Medical Inc., Overland Park, Kans.) and 200 μl of thromboplastin C (Dade, Miami, Fla.; contains rabbit brain thromboplastin and 11.8 mM Ca^++). The clotting assay was performed in an automatic coagulation timer (MLA Electra 800, Medical Laboratory Automation Inc., Pleasantville, N.Y.), and clotting times were converted to units of Factor VII activity using a standard curve constructed with 1:5 to 1:640 dilutions of normal pooled human plasma (assumed to contain-one unit per ml Factor VII activity; prepared by pooling citrated […] from healthy donors). […] Factor VII activity is seen as a reduction in clotting time over control samples.

For series [2] the following is noted: in vivo; cited from earlier work.
Series [3] concerns the target T1, cell-surface tissue factor on rat vascular smooth muscle cells (rat) (UniProt P42533).
T1 sequence: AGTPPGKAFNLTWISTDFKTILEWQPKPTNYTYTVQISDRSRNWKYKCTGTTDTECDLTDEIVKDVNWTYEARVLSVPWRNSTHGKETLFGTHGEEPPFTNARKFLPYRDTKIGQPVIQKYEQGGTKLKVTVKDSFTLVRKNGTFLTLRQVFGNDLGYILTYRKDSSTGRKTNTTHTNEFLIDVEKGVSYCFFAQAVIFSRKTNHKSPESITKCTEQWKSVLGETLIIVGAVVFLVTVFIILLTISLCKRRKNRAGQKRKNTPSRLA

Series [4] addresses T1, cell-surface tissue factor on rat vascular smooth muscle cells (rat). This is another data set of the same source.
For series [5] the target is unchanged. This is another data set of the same source.
In series [6] the target is purified recombinant soluble tissue factor.
In series [7] the target is T2, tissue factor (thromboplastin) (Oryctolagus cuniculus, UniProt P24055).
T2 construct: contains rabbit brain thromboplastin; purchased Dade, Miami, Fla. thromboplastin-C; host or cells: rabbit brain extract
T2 sequence (P24055 33-292): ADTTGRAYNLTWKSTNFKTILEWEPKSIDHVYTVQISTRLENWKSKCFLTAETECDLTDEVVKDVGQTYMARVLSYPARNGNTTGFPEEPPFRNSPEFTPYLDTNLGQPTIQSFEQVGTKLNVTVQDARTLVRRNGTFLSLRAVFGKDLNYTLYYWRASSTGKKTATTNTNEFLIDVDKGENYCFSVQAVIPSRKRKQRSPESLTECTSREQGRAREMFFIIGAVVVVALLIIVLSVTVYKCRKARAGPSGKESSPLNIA
The experiment in a line: One-step clotting mixing assay with a limiting amount of tissue factor. It counts as biochemical, rabbit. Here is the method:
The ability of the modified Factor VII to compete with wild-type Factor VII for tissue factor and inhibit its clotting activity was assessed in a one-step clotting assay in the presence of a limiting amount of tissue factor (thromboplastin).
Clotting times were determined in a one-step assay similar to that described in Example II. A limited amount of tissue factor, a constant amount of wild type Factor VII, and increasing amounts of variant Factor VII were used in the mixing experiments. An inhibition of Factor VII/VIIa procoagulant activity would be seen as an increase in clotting time in assays containing increasing amounts of variant Factor VII.
The amount of Factor VII activity in the test samples was calculated as a percentage of a standard curve that measured Factor VII activity in normal pooled plasma. The standard curve for Factor VII activity was generated using serial dilutions of normal pooled plasma in phosphate buffered solution (PBS) that ranged from 1:5 to 1:640. For this purpose it was assumed that normal plasma contains approximately 500 ng/ml of Factor VII and this was considered to be one unit of activity. A mixture of 100 μl Factor VII-deficient plasma, 100 μl plasma dilution and 200 μl of thromboplastin-C (Dade, Miami, Fla.) was used to measure clotting time on a MLA Electra 800 automatic timer. To establish the standard curve, the results were graphed as percentage of activity (1:5=100% activity) versus clotting time in seconds.
The assay required that the medium containing the wild type and variant Factor VII be composed of less than one percent serum. The dilutions were made in PBS so that clotting times would fall along the standard curve. A minimum dilution of 1:2 was typical. The final volume was 100 μl. Two different human Factor VII Ser344→Ala variants, designated clones “#10” and “#6” were tested in the experiments.

Series [8] deals with tissue factor (thromboplastin C, rabbit brain thromboplastin) (rabbit) (UniProt P24055).
The target in series [9] is purified recombinant soluble tissue factor. This is another data set of the same source.
Series [10] has as its target tissue factor preparation, saline extract of baboon brain (baboon).
In series [11] the target is cell-surface tissue factor on baboon smooth muscle cells (baboon).
Series [12] addresses T3, cell-surface tissue factor on rat vascular smooth muscle cells (Rattus norvegicus, UniProt P42533).
T3 construct: endogenous in cells; host or cells: rat vascular smooth muscle cells
T3 sequence (P42533 29-295): T1 sequence
The experiment in a line: Factor Xa generation on rat smooth muscle cells (S-2222). To be noted: 10 nM Factor VIIa. It counts as cell-based. The procedure:
Vascular smooth muscle-cells were analyzed for the presence of cell-surface tissue factor by measuring the ability of the cells to stimulate the conversion of Factor X to Factor Xa using a chromogenic substrate that is specific for Factor Xa.
Rat vascular smooth muscle cells (Clowes et al., J. Clin. Invest. 93:644-651 (1994)) were plated into 96-well culture dishes (American Scientific Products, Chicago, Ill.) at 8,000 cells per well in growth media (Table 4).
After a 48 hour incubation at 37° C. the medium was changed to serum free medium (Table 5).
The cells were incubated 72 hours at 37° C. After incubation, either PDGF-BB (10 ng/ml) or 10% fetal calf serum was added to the cells to stimulate tissue factor expression (Taubman et al., J. Clin. Invest, 21:547-552, 1993). A parallel set of cells received neither PDGF nor serum to monitor for intrinsic activity of unstimulated cells. […] The cells were incubated for 2 hours at 37° C. and washed with HEPES buffer (10 mM HEPES, 137 mM NaCl, 4 mM KCl, 5 mM CaCl2, 11 mM glucose, 0.1% BSA). After washing, cells were incubated for 5 min with 50 μl per well of 200 nM plasma-purified human Factor X in a Tris-buffered saline supplemented with 5 mM CaCl2. Twenty-five microliters of 0.5 M EDTA and 25 μl of an 800 μM solution of S-2222 chromogenic substrate (Kabi Pharmacia, Franklin, Ohio) were added to each well. The plates were incubated for 40 min at room temperature, then analyzed at 405 nm using a THERMOMAX microplate reader (Molecular Devices, Menlo Park, Calif.).

Series [13] concerns the target T3, cell-surface tissue factor on rat vascular smooth muscle cells. The experiment in a line: Inhibition of cell-surface chromogenic activity by DEGR-Factor VIIa. It counts as cell-based. To be noted: 10 nM Factor VIIa; cells stimulated with 10% fetal calf serum. Here is the method: Rat vascular smooth muscle cells were plated into 96-well culture dishes as described above. The cells were cultured for 72 hours in serum free media as described above and treated with the addition of 10% fetal calf serum for 6 hours to stimulate tissue factor expression. […] The cells were incubated for 2 hours at 37° C., then washed with HEPES buffer. After washing, the cells were incubated for 5 minutes with […] per well of 200 nM Factor X in Tris-buffered saline supplemented with 5 mM CaCl2. Twenty-five microliters of 0.5 M EDTA and 25 μl of S-2222 (800 μM) chromogenic substrate (Kabi Pharmacia) were added to each well. The cells were incubated at room temperature for 40 minutes. Chromogenic activity was analyzed at 405 nm as described above.

In series [14] the target is T4, cell-surface tissue factor on rat smooth muscle cells (Rattus norvegicus, UniProt P42533).
T4 construct: endogenous in cells; host or cells: rat vascular smooth muscle cells
T4 sequence (P42533 29-295): T1 sequence
The experiment in a line: Dose-dependent cell-surface chromogenic activity on rat smooth muscle cells. It counts as cell-based. Here is the method: Rat vascular smooth muscle cells were plated into 96-well culture dishes at 4,000 cells per well in growth medium supplemented with 1% fetal calf serum (as in Table 4 without 10% fetal calf serum). […] The cells were incubated with the Factor VII mixtures for 2 hours at 37° C. After incubation, the cells were washed and incubated with 50 μl of 200 nM Factor X in tris buffered saline for 5 minutes at room temperature. Each well had 25 μl of 0.5 M EDTA and 25 μl of […] S-2222 (Kabi Pharmacia) added to it, and the plates were incubated for 40 minutes at room temperature. Chromogenic activity was analyzed at 405 nm in a microplate reader as described above.

Where [15] appears, read: variant medium 10 μl + B4A1 (wild type) medium 10 μl.
The mark [16] stands for this setting: variant medium 20 μl + B4A1 (wild type) medium 10 μl.
Where [17] appears, read: variant medium 30 μl + B4A1 (wild type) medium 10 μl.
[18] abbreviates: variant medium 40 μl + B4A1 (wild type) medium 10 μl.
Where [19] appears, read: variant medium 50 μl + B4A1 (wild type) medium 10 μl.

Turning to “Wild-type Factor VII: recombinant wild-type Factor VII used as a control”, the “Clotting time” value in [1] (dilution 1:20) worked out at 19.0 s; in series [1] (dilution 1:40), 21.5 s; in series [1] (dilution 1:80), 23.3 s.

For the molecule heparin, the half-life result in series [2] was “approximately 80 minutes”.

With “recombinant human Factor VIIa (from UniProt P08709) (enzyme)”, the OD405 (Factor Xa chromogenic activity, S-2222) in series [3] was found to be 0.36 OD405; in series [4], 0.342 OD405; in series [5], 0.208 OD405; in series [6], 0.79 OD405.

Take “Modified Factor VII (#6): human Factor VII Ser344→Ala variant, clone #6”: in series [1] (dilution 1:1), the “Clotting time” value amounted to 33.5 s. Further, the “Percent FVIIa Activity” value in [7] (setting [15]) was determined as 74%; in [7] (setting [16]), 56%; in series [7] (setting [17]) it was 46%; in series [7] (setting [18]), 41%; in series [7] (setting [19]), 32%.

As for “Modified Factor VII (#10): human Factor VII Ser344→Ala variant, clone #10”, the “Clotting time” value in series [1] (dilution 1:1) worked out at 32.5 s. The “Percent FVIIa Activity” value in [7] (setting [15]) stood at 70%; in series [7] (setting [16]), 51%; in [7] (setting [17]) it was 43%; in [7] (setting [18]) it was 34%; in [7] (setting [19]), 28%.

Turning to “human Factor VII Ser344→Ala variant (from UniProt P08709) (enzyme)”, the Percent FVIIa Activity in series [8] came to 28%.

For the molecule “DEGR-Factor VIIa (from UniProt P08709) (enzyme)”, the OD405 (Factor Xa chromogenic activity, S-2222) in [9] amounted to 0.055 OD405. For the same molecule, the Clotting time in series [10] came out at 158 s. In [11], this molecule displayed an inhibition of Factor Xa chromogenic activity on baboon smooth muscle cells of more than 90%.

As to “human Factor VII Ser344→Ala variant expressed without vitamin K (from UniProt P08709) (enzyme)”, the Percent FVIIa Activity in series [8] stood at 78%.

Take “Factor VIIa: Recombinant human Factor VIIa, activated two-chain form [reference compound]”: the OD405 result is “.247” in series [12] (Intrinsic (unstimulated cells)); “.342” in [12] (cells stimulated with 10% FCS); “.360” in series [12] (cells stimulated with PDGF-BB (10 ng/ml)); “.342” in [13]; “.058” in series [14] (Factor VIIa 1.56 nM alone); “.111” in series [14] (Factor VIIa 6.25 nM alone). In addition, the OD405 entry in series [14] (Factor VIIa 25.00 nM alone) is reported as “.154”; in [14] (Factor VIIa 100.00 nM alone), “.208”; in series [14] (Factor VIIa .10 nM alone), “.005”; in [14] (Factor VIIa .39 nM alone) it was “.025”.

B1: #10 (−K): Ser344→Ala variant clone #10 expressed by cells grown without vitamin K (protein, UniProt P08709 1-466, looked up, variant S344A)
chain: MVSQALRLLCLLLGLQGCLAAGGVAKASGGETRDMPWKPGPHRVFVTQEEAHGVLHRRRRANAFLEELRPGSLERECKEEQCSFEEAREIFKDAERTKLFWISYSDGDQCASSPCQNGGSCKDQLQSYICFCLPAFEGRNCETHKDDQLICVNENGGCEQYCSDHTGTKRSCRCHEGYSLLADGVSCTPTVEYPCGKIPILEKRNASKPQGRIVGGKVCPKGECPWQVLLLVNGAQLCGGTLINTIWVVSAAHCFDKIKNWRNLIAVLGEHDLSEHDGDEQSRRVAQVIIPSTYVPGTTNHDIALLRLHQPVVLTDHVVPLCLPERTFSERTLAFVRFSLVSGWGQLLDRGATALELMVLNVPRLMTQDCLQQSRKVGDSPNITEYMFCAGYSDGSKDSCKGDAGGPHATHYRGTWYLTGIVSWGQGCATVGHFGVYTRVSQYIEWLQKLMRSEPRPGVLLRAPFP
modifications: expressed without vitamin K
notes: Ser344→Ala variant clone #10 expressed by cells grown without vitamin K
As for B1, in series [7] (setting [16]), the “Percent FVIIa Activity” value worked out at 78%.

B2: #6 (−K): Ser344→Ala variant clone #6 expressed by cells grown without vitamin K (protein, UniProt P08709 1-466, looked up, variant S344A)
chain: B1 chain
modifications: expressed without vitamin K
notes: Ser344→Ala variant clone #6 expressed by cells grown without vitamin K
B2: the “Percent FVIIa Activity” value in series [7] (setting [16]) came out at 85%.
